Assay results taken from patent US20240141038A1 (SHANGHAI QILU PHARMACEUTICAL RESEARCH AND DEVELOPMENT CENTRE, published 2024).

Tests used:
[1] = biological target: T1, Human NKp46 antigen for immunization, screening, and testing (Kactus, NKP-HM146) (human, UniProt O76036 22-255); experiment: ELISA, coated antigen, VHH supernatant, anti-Myc HRP
T1 construct: Bought protein; also called human NKp46 antigen protein; human NKp46 protein
Experimental: (§1) In order to obtain positive antibodies that can cross-bind to human NKp46 and cynomolgus monkey NKp46, the above libraries were amplified and added into M13K07 helper phage and assembled into bacteriophages. 1×10¹² pfu of immune camel antibody library and immune alpaca antibody library were added thereto, and the phages were incubated with biotinylated human NKp46 protein (8 μg/mL) bound to magnetic beads for 1 h at room temperature. After washing off the unbound bacteriophages with 0.05% PBST, the phages specifically bound to NKp46 were eluted with […] triethylamine, and after gradient dilution of the bacteriophages above, E. coli SS320 in the logarithmic growth phase were infected. After being cultured overnight at 37° C. on plates containing ampicillin, single-clone was picked for IPTG-induced expression, and the supernatant was used for ELISA assay. ELISA plates were coated with […] human NKp46 antigen or cynomolgus monkey NKp46 antigen overnight at 4° C., then washed 3 times with 0.05% PBST and blocked with 5% skim milk at room temperature for 1 h, and washed 3 times with 0.05% PBST. Then 30 µL of induced supernatant was then added into per well, medium were added to negative control wells, the ELISA plates were incubated at room temperature for 1 h, and finally detected with anti-Myc HRP (VHH with his and c-Myc labels were expressed by the induction of IPTG. Sequence clones that had OD450 values of greater than 1.0 for binding to human NKp46 and cynomolgus monkey NKp46 as determined by ELISA, and of which the ratio of OD450 values to that of negative control were greater than 3 were sequenced, thereby obtaining amino acid sequences of 30 variable regions of heavy chain antibodies disclosed in the present disclosure, as shown in Table 2.

[2] = biological target: T2, Cynomolgus monkey NKp46 for immunization, screening, and testing (Kactus, NKP-CM146) (cynomolgus monkey, UniProt Q95JB9 22-254); experiment: as above
T2 construct: Bought protein; also called monkey NKp46 antigen protein; cynomolgus monkey NKp46 antigen
T2 sequence (Q95JB9 other isoform, or with tags, fused parts or gaps limits assumed): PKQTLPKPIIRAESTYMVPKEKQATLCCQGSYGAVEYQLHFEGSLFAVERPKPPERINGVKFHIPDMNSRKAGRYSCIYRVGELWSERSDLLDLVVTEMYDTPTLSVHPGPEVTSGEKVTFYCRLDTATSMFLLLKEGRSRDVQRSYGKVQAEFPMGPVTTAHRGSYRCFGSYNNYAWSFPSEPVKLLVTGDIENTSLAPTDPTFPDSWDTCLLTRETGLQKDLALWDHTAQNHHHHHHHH
Experimental: as §1

[3] = biological target: T3, cynomolgus monkey NKp46 (full length, on cells) (cynomolgus monkey, UniProt Q95JB9 22-306); experiment: flow cytometry on cynomolgus monkey NKp46-CHOK1 cells
T3 construct: also called cynomolgus monkey NKp46-CHOK1; cynomolgus NKp46-CHOK1
T3 sequence (Q95JB9 22-306): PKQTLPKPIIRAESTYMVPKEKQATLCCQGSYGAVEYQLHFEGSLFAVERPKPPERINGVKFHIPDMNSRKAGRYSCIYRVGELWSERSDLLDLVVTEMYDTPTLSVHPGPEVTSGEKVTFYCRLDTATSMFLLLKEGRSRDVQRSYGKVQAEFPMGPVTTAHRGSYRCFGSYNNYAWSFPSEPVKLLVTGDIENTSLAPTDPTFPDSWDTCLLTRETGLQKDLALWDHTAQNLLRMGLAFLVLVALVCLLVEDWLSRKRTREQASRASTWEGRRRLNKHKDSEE
Experimental: (§2) The stable human NKp46-CHOK1 and cynomolgus monkey NKp46-CHOK1 cell lines obtained in Example 2 were cultured, the cells were digested with 0.25% pancreatic enzyme EDTA for about 5 minutes, and the digestion was terminated with the complete medium. After centrifugation at 1,500 rpm for 5 minutes, the supernatant was discarded, the precipitated cells were resuspended with PBS containing 1% BSA and counted. The cell density was adjusted to 1E6/mL and seeded in a corning-3799 96-well culture plate at 100 μL/well. Aftering centrifuging at 1,500 rpm for 5 minutes, the supernatant was discarded and the precipitate was set aside at 4° C. The antibody solutions were prepared with PBS containing 1% BSA, wherein the antibody solution has an initial concentration was 100 nM, then diluted in 10-fold to obtain 7 gradients: 10⁻⁴ nM, 10⁻³ nM, 10⁻² nM, 10⁻¹ nM, […], and 10² nM. The prepared antibody solutions were used to resuspend the cells, 100 μL/well. The resuspended cell culture plates were incubated in a 4° C. freezer for 1 h. After centrifugation at 1500 rpm for 5 minutes, the supernatant was discarded. The precipitate was washed with 160 μL of PBS containing 1% BSA, the supernatant was discarded, and the cells were stored for later use.
(§3) The Secondary antibody (goat anti human IgG Fc PE) solution was prepared with PBS containing 1% BSA, and diluted 1:200. The cells were resuspended with the prepared secondary antibody solution, 100 μL/well, incubated in a 4° C. freezer for 0.5 h. After centrifugation at 1,500 rpm for 5 minutes, the supernatant was discarded, the precipitated cells were washed with 160 μL of PBS containing 1% BSA, the supernatant was discarded, the cells were resuspended with 100 μL of PBS containing 1% BSA, and filtered in 300-mesh gauze. The mean fluorescence intensity of antibody binding to cells was then analyzed on a flow cytometer. The FCS file was exported from the flow cytometer, the mean fluorescence intensity (hereinafter referred to as MFI) of PE channel was analyzed with Flowjo software, and the mean fluorescence intensity obtained was introduced into the Graphpad to analyze the half binding concentration (hereinafter referred to as EC₅₀) and the top mean fluorescence intensity (Top MFI) of the antibody and the cell.

[4] = biological target: T4, human NKp46 (full length, on cells) (human, UniProt O76036 22-304); experiment: cell-based or functional assay
T4 sequence (O76036 22-304 Q82K): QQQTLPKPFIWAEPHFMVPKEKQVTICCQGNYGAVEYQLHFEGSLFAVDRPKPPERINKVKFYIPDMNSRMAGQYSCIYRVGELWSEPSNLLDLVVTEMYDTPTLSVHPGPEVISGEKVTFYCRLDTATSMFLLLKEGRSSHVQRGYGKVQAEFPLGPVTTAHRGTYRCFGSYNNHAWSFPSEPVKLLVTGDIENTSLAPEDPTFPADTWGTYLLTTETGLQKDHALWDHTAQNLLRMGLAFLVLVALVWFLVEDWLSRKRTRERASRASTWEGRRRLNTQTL

[5] = biological target: T4, human NKp46 (full length, on cells); experiment: flow cytometry on human NKp46-CHOK1 cells
Experimental: as §2, §3

T1 sequence (O76036 other isoform, or with tags, fused parts or gaps limits assumed): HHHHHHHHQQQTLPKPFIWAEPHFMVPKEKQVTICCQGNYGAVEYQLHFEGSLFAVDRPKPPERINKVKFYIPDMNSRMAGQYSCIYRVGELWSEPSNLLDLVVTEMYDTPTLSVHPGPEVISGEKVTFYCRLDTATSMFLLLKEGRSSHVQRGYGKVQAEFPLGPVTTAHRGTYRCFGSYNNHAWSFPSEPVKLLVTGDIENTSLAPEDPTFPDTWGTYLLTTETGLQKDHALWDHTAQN

Binder	OD450 [1]	ratio of OD450 to negative control [1]	OD450 [2]	ratio of OD450 to negative control [2]	EC50 [3] [pM]	Top MFI [3]	EC50 of NK cell activation (CD107a-positive NK cells, plate-coated antibody) [4] [pM]	Top mean fluorescence intensity (Top MFI), NK cell activation (CD107a) [4]	EC50 [5] [pM]	Top MFI [5]
NKp46-PA3 VHH (his and c-Myc labels) (VHH, IPTG-induced E. coli supernatant used in the screening ELISA; also called NKp46-PA3 clone supernatant; not shown: his and c-Myc labels) VHH: DVQLVESGGGLVQAGGSLRLSCAASGRTFNTIHWFRQAPGKEREFVARIWWIERTTFYAASVKGRFTISRDNAKNMVYLQMNSLKPEDTAVYYCAADARYTGSRRWESDYWGQGTQVTVSS	> 1	> 3	> 1	> 3	–	–	–	–	–	–
NKp46-PA22 VHH (his and c-Myc labels) (VHH, IPTG-induced E. coli supernatant used in the screening ELISA; also called NKp46-PA22 clone supernatant; not shown: his and c-Myc labels) VHH: QVQLVESGGGLVQAGGSLRLSCTASGRTFETLHWFRQAPGKEREFVARIWWIGGATFYADSVKGRFTISRDNAKNMVYLQMNSLKPEDTAIYYCAADARYTSNRRWESDYWGQGTQVTVSS	> 1	> 3	> 1	> 3	–	–	–	–	–	–
H1-PA27 humanized antibody (antibody, human IgG1, V domains shown, also called hPA27; not shown: constant region of human IgG1) VH: QVQLVESGGGVVQPGRSLRLSCAASGRTESWYRMGWVRQAPGKGLEWVARISGDTNIKYYAGSVKGRFTISRDNSKNTLYLQMSSLRAEDTAVYYCAADRTGATWDYWGQGTLVTVSS	–	–	–	–	338	2540	> 20000	6.3	253	6000
NKp46-PA24 VHH (his and c-Myc labels) (VHH, IPTG-induced E. coli supernatant used in the screening ELISA; also called NKp46-PA24 clone supernatant; not shown: his and c-Myc labels) VHH: QVQLVESGGGQVQAGGSLRLSCVASGRTYSIYGMGWFRQAPGKEREVVAAINWSSGHTYYADSVKGRFTISKDNAKNTHYLQMNSLKPEDTAVYYCAADSIYGLSFTVKDYDYWGQGTLVTVSS	> 1	> 3	> 1	> 3	–	–	–	–	–	–
NKp46-PA29 VHH (his and c-Myc labels) (VHH, IPTG-induced E. coli supernatant used in the screening ELISA; also called NKp46-PA29 clone supernatant; not shown: his and c-Myc labels) VHH: QVQLVESGGGWVQPGGSLRLSCAASGRTYSIYGMGWFRQAPGKEREIVAAINWNSGHTYYADSVKGRFTISRDNAKNTHYLQMNSLKPEDTAVYYCAADSIIGLSFTVKDYDYWGQGTQVTVSS	> 1	> 3	> 1	> 3	–	–	–	–	–	–
NKp46-PA11 VHH (his and c-Myc labels) (VHH, IPTG-induced E. coli supernatant used in the screening ELISA; also called NKp46-PA11 clone supernatant; not shown: his and c-Myc labels) VHH: DVQLVESGGGLVQAGGSLRLSCAASGHTESWYRMGWFRQAPGKGREVVGRISGSPGILYYAGSVKGRFTISRDNAKNTLYLQMTNLKPEDTARYYCAADRTGATWDYWGQGTQVTVSS	> 1	> 3	> 1	> 3	–	–	–	–	–	–
NKp46-PA27 VHH (his and c-Myc labels) (VHH, IPTG-induced E. coli supernatant used in the screening ELISA; also called NKp46-PA27 clone supernatant; not shown: his and c-Myc labels) VHH: DVQLVESGGGLVQAGASLRLSCAASGRTESWYRMGWFRQAPGKGREVVARISGDTNIKYYAGSVKGRFTISRDNAKNTLYLQMTNLKPEDTARYYCAADRTGATWDYWGQGTQVTVSS	> 1	> 3	> 1	> 3	–	–	–	–	–	–
NKp46-PA28 VHH (his and c-Myc labels) (VHH, IPTG-induced E. coli supernatant used in the screening ELISA; also called NKp46-PA28 clone supernatant; not shown: his and c-Myc labels) VHH: QVQLVESGGGLVQAGDSLRLSCVASGRTFSTYAMGWFRQAPGKEREFVAAISRNADTTYYADSVKGRFTISRDNAKNTVYLQMNSLKPEDTAVYYCAADRYSSNTQVGVARTYYDYWGQGTQVTVSS	> 1	> 3	> 1	> 3	–	–	–	–	–	–
NKp46-PA26 VHH (his and c-Myc labels) (VHH, IPTG-induced E. coli supernatant used in the screening ELISA; also called NKp46-PA26 clone supernatant; not shown: his and c-Myc labels) VHH: QVQLVESGGGMVQAGGSLRLSCAASGRTFNTIHWFRQAPGKEREFVARIWWIGGATFYADSVKGRFTISRDNTENLVYLQMNSLKPEDTAVYYCAADARYTSHGYYESDYWGPGTQVTVSS	> 1	> 3	> 1	> 3	–	–	–	–	–	–
NKp46-PA15 VHH (his and c-Myc labels) (VHH, IPTG-induced E. coli supernatant used in the screening ELISA; also called NKp46-PA15 clone supernatant; not shown: his and c-Myc labels) VHH: QVQLVESGGGLVQAGDSLRVSCAASGRTFSTYAMGWFRQAPGKEREFVAASSRDGTTTYYADSVKGRFTISRDNAKNTVYLQMNSLKPEDTAVYYCAASRPLSTTQVGIASAWYEYWGQGTQVTVSS	> 1	> 3	> 1	> 3	–	–	–	–	–	–
NKp46-PA19 VHH (his and c-Myc labels) (VHH, IPTG-induced E. coli supernatant used in the screening ELISA; also called NKp46-PA19 clone supernatant; not shown: his and c-Myc labels) VHH: QVQLVESGGGLVQPGGSLRLACAASGRTFSTYAMGWFRQAPGKEREFVAAISRNGGTTYYADSVKGRFTISRDNAKNTVYLQMNSLKPEDTAVYYCAASRPLSNTQVGVASAWYEFWGQGTLVTVSS	> 1	> 3	> 1	> 3	–	–	–	–	–	–
NKp46-PC2 VHH (his and c-Myc labels) (VHH, IPTG-induced E. coli supernatant used in the screening ELISA; also called NKp46-PC2 clone supernatant; not shown: his and c-Myc labels) VHH: QVQLVESGGGLVQPGGSLRLSCAASGFAFSNYNMFWVRQAPGEGFEWISVINRGGDTADYAASVKGRFTISRDNAKNTLYLQMNSLKTEDTAVYYCARDPLGTTRGQGTLVTVSS	> 1	> 3	> 1	> 3	–	–	–	–	–	–
H4-PC11 humanized antibody (antibody, human IgG1, V domains shown, not shown: constant region of human IgG1) VH: EVQLVESGGGLVQPGGSLRLSCAPSPYSANSFSMAWFRQAPGKGREGIACIQAESGSTNVAPSVKGRFTISQDNSKNTLYLQMNSLRAEDTAVYYCAAFKRNVGGCELRPEHWRFWGQGTLVTVSS	–	–	–	–	274	3620	1840	19.3	305	7240
H5-PC11 humanized antibody (antibody, human IgG1, V domains shown, not shown: constant region of human IgG1) VH: EVQLVESGGGLVQPGGSLRLSCAPSPYSANSFSMAWFRQAPGKEREGIACIQAESGSTNVAPSVKGRFTISQDNSKNTLYLQMNSLRAEDTAVYYCAAFKRNVGGCELRPEHWRFWGQGTLVTVSS	–	–	–	–	270	3660	950	23.6	302	7370
